Test results from article PMC8539640.

What was measured:
[1] = target: Bam35 P19t (P19 without its predicted transmembrane domain), bait pBN_19t (Bacillus virus Bam35); assay: two-hybrid
[2] = target: Bam35 P22 (special vertex, suggested), bait pBN_22 (Bacillus virus Bam35); assay: two-hybrid; pairwise Y2H: Bam35 ORF baits (pBC or pBN) against full-length HER1410 ORF preys (pPC or pPN); HIS3 reporter, -LWH with 0, 0.025, 0.1, 3, 10, 25, 50 and 100 mM 3AT; positive when growth was higher than in the self-activation controls with the empty vectors
[3] = target: Bam35 P26 (transglycosylase and integral membrane scaffolding, suggested), bait pBN_26 (Bacillus virus Bam35); assay: two-hybrid

“B. thuringiensis HER1410 OmpR, full length, prey pPC_ompR(22050) (natural protein)” was tested, and the other [1] was 100 mM.
With “B. thuringiensis HER1410 YadS, full length, prey pPC_yadS(28175) (natural protein)” the Max. 3AT (mM) (B35ORF BtORF) [2] was 50 mM.
Work on “B. thuringiensis HER1410 protein of locus 16200, full length, prey pPC_(16200) (natural protein)” yielded a Max. 3AT (mM) (B35ORF BtORF) [3] of 3 mM.
